Assay results reported in paper PMC3521654, “The Nuclear Chaperone Nucleophosmin Escorts an Epstein-Barr Virus Nuclear Antigen to Establish Transcriptional Cascades for Latent Infection in Human B Cells” (PLoS Pathogens, 2012).

Columns and labels:
GST-E2 300–360 = target: T1, GST-E2 300–360 (Epstein-Barr virus, UniProt P12978 300-360); experiment: pull-down; settings: one partner purified
T1 construct: source: E. coli BL21 (DE3) pLys, purified (GST-sepharose)
T1 sequence: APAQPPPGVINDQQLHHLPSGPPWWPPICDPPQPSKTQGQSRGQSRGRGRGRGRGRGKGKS

[1] = target: T2, EBNA2 from the transfected expression vector (pSG5-EBNA2, E2) (Epstein-Barr virus, UniProt P12978 1-487); experiment: cell-based or functional assay
T2 sequence (looked up): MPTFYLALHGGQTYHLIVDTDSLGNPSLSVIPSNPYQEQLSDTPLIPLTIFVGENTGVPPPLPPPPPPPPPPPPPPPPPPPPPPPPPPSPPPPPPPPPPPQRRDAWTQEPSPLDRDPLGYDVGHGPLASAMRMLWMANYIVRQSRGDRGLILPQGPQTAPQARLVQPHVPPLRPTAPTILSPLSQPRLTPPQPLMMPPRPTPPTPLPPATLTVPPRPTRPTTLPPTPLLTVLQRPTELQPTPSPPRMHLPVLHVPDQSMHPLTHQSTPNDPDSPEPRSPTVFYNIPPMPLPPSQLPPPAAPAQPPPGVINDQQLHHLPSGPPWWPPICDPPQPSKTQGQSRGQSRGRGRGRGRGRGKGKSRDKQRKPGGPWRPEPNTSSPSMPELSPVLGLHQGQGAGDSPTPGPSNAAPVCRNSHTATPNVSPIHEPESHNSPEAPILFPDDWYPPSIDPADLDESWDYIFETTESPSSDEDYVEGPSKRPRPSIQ

B1: flag-tagged NPM1 truncated deletion mutant C3 (1–120) (domain or fragment, UniProt P06748 1-120, looked up)
chain: MEDSMDMDMSPLRPQNYLFGCELKADKDYHFKVDNDENEHQLSLRTVSLGAGAKDELHIVEAEAMNYEGSPIKVTLATLKMSVQPTVSLGGFEITPPVVLRLKCGSGPVHISGQHLVAVE
notes: also called N-terminal oligomerization domain (OD); source: BJAB, transfected, in lysate
percent of input pulled down (GST-E2 300–360): ~2% | co-activation of EBNA2-dependent LMP1-Luc reporter activity in BJAB cells [1]: 2.5 fold

B2: flag-tagged NPM1 truncated deletion mutant C2 (1–194) (domain or fragment, UniProt P06748 1-194, looked up)
chain: MEDSMDMDMSPLRPQNYLFGCELKADKDYHFKVDNDENEHQLSLRTVSLGAGAKDELHIVEAEAMNYEGSPIKVTLATLKMSVQPTVSLGGFEITPPVVLRLKCGSGPVHISGQHLVAVEEDAESEDEEEEDVKLLSISGKRSAPGGGSKVPQKKVKLAADEDDDDDDEEDDDEDDDDDDFDDEEAEEKAPVKK
notes: source: BJAB, transfected, in lysate
percent of input pulled down (GST-E2 300–360): ~2% | co-activation of EBNA2-dependent LMP1-Luc reporter activity in BJAB cells [1]: 2.5 fold
